Data from the supplement of paper PMC7125110.
± gives the standard error. For some assays here: Fewer inactive variants are shown than the library holds.

B1: glmS ribozyme (parent)
chain: AUAAAAGCGCCAGAACUACAGAAAUGUAGUUGACGAGGAGGAGGUUUAUCGAAUUUUCGGCGGAUGCCUCCAAA

Legend:
Details in all cases: with glucosamine-6-phosphate
glucosamine-6-phosphate [1] = variants of: B1; test: kcat; higher = faster cleavage; RNA array
Method in brief: (§1)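 Glucosamine-6-phosphate (40 μM to 10 mM) in HEPES/KCl/Mg(OAc)2 buffer was flowed over sequenced MiSeq chips, and tiles were imaged over ~14 h. Barcoded ribozyme variants there had been transcribed in situ by E. coli RNA polymerase and were tracked through a hybridised Cy3 probe at 37 °C. One- or two-exponential decay fits to per-tile medians, normalised to baseline and to non-cleaving reference variants, gave kobs. kcat and KM came from weighted Michaelis–Menten fits across concentrations.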

glucosamine-6-phosphate [2] = variants of: B1; test: KM; higher = weaker cofactor use; RNA array
Method in brief: as §1

glucosamine-6-phosphate [3] = variants of: B1; test: self-cleavage kobs at 40 uM GlcN6P; higher = faster cleavage; RNA array
Method in brief: as §1

glucosamine-6-phosphate [4] = variants of: B1; test: self-cleavage kobs at 160 uM GlcN6P; higher = faster cleavage; RNA array
Method in brief: as §1

glucosamine-6-phosphate [5] = variants of: B1; test: self-cleavage kobs at 640 uM GlcN6P; higher = faster cleavage; RNA array
Method in brief: as §1

glucosamine-6-phosphate [6] = variants of: B1; test: self-cleavage kobs at 2500 uM GlcN6P; higher = faster cleavage; RNA array
Method in brief: as §1

glucosamine-6-phosphate [7] = variants of: B1; test: self-cleavage kobs at 10000 uM GlcN6P; higher = faster cleavage; RNA array
Method in brief: as §1

Variant | kcat (glucosamine-6-phosphate [1]) [s⁻¹] | KM (glucosamine-6-phosphate [2]) [µM] | self-cleavage kobs at 40 uM GlcN6P (glucosamine-6-phosphate [3]) [s⁻¹] | self-cleavage kobs at 160 uM GlcN6P (glucosamine-6-phosphate [4]) [s⁻¹] | self-cleavage kobs at 640 uM GlcN6P (glucosamine-6-phosphate [5]) [s⁻¹] | self-cleavage kobs at 2500 uM GlcN6P (glucosamine-6-phosphate [6]) [s⁻¹] | self-cleavage kobs at 10000 uM GlcN6P (glucosamine-6-phosphate [7]) [s⁻¹]
AUAAAAGCGCCAGAACUACCGAAAUGUAGUUGACGAGGAGGAGGUUUAUCGAAUUUUCGGCGGAUGCCUCCAAA [A20C] | 0.0144 ± 0.0036 | 327 ± 110 | 0.00153 ± 0.00021 | 0.00529 ± 0.0011 | 0.00992 ± 0.003 | 0.0111 ± 0.0039 | 
AUAAAAGCGCCAGAACUACAUAAAUGUAGUUGACGAGGAGGAGGUUUAUCGAAUUUUCGGCGGAUGCCUCCAAA [G21U] | 0.0659 ± 0.016 | 2090 ± 600 | 0.00136 ± 8.6e-05 | 0.00351 ± 0.00055 | 0.0147 ± 0.0015 | 0.0337 ± 0.0063 | 0.059 ± 0.0083
AUAAAAGCGCCAGAACUACAGAAAUGUAAUUGACGAGGAGGAGGUUUAUCGAUUUUUCGGCGGAUGCCUCCAAA [G29A A53U] | 0.00212 ± 0.00065 |  | 9.5e-05 ± 1.9e-05 | 0.000233 ± 5.5e-05 | 0.000595 ± 9.3e-05 | 0.00129 ± 0.00019 | 0.00276 ± 0.00055
AUAAAAGCGCCAGAACUAAAGAAAUGUAGUUGACGAGGAGGAGGUUUAUCGAAUUUUCGGCGGAUGGCUCCAAA [C19A C67G] | 0.000349 ± 4.1e-05 | 295 ± 93 |  | 0.000171 ± 4.8e-05 | 0.000207 ± 7.2e-05 | 0.000309 ± 7.1e-05 | 0.000347 ± 7.3e-05
AUAAAAGCGCCAGAAUUACAGAAAUGUAGUUGACGAGGAGGAGGUUAAUCGAAUUUUCGGCGGAUGCCUCCAAA [C16U U47A] | 0.0299 ± 0.0051 | 3060 ± 660 | 0.0004 ± 7.1e-05 |  | 0.00515 ± 0.00087 | 0.0118 ± 0.003 | 0.0259 ± 0.0068
AUAAAAGCGCCAGAACUACAGAAAUGUAAUUGACGAGGAGGAGGUUUAUCGAAUUUUCGGCGGAUGUCUCGAAA [G29A C67U C71G] | 4.81e-05 ± 2.2e-05 |  |  |  | 9.19e-05 ± 4.3e-05 |  | 
AUAAAAGCGCCAGAACUACAGAAAUGUAAUUGACGAGGUGGUGGUUUAUCGAAUUUUCGGCGGAUGCCUCCAAA [G29A A39U A42U] | 0.000919 ± 0.00015 | 3000 ± 790 |  | 4.77e-05 ± 2e-05 | 0.000148 ± 3.3e-05 | 0.000488 ± 0.00012 | 0.000685 ± 0.00014
AUAAAAGCGCCAGAACUACAGAAAUGUAAUUGACGAGGAGGGGGUUUAUCGAAUUUUCGGCGGAUGCCUCCAAA [G29A A42G] | 0.00587 ± 0.0021 | 1120 ± 510 | 0.00025 ± 4.4e-05 | 0.000587 ± 0.00015 | 0.00227 ± 0.00083 | 0.00308 ± 0.0011 | 0.00757 ± 0.0021
AUAAAAGCGCCAGAACUAAAGAAAUGUAGUUGACGAGGACGAGGUUUAUCGAAUUUUCGGCGGAUGCCUCCAAA [C19A G40C] | 0.00125 ± 0.00032 | 832 ± 360 | 7.99e-05 ± 1.9e-05 | 0.000173 ± 5.2e-05 | 0.000434 ± 0.00012 | 0.00156 ± 0.00041 | 0.00113 ± 0.00023
AUAAAAGCGCCAGAACUACGGAAAUGUAGUUGACGACGAGGAGGUUUAUCGAAUUUUAGGCGGAUGCCUCCAAA [A20G G37C C58A] | 1.09e-05 ± 2.8e-06 |  |  |  |  |  | 
AUAAAAGCGCCAGAACUACAGAAAUGUAAUUGACGAGGAGGAGGUUUAUCGAAUUUUCGGCGGAUGCCUACAAA [G29A C70A] | 3.87e-05 ± 5e-06 |  |  |  | 4.17e-05 ± 1.5e-05 | 4.02e-05 ± 1.1e-05 | 2.96e-05 ± 1.4e-05
AUAAAAGCGCCAGAACUACAGAAAUGUAAUUGACGAGGAGGAGGUUUAUCGAAUUUUCGGCGGAUGGCUCCAAA [G29A C67G] | 0.00016 ± 1.6e-05 | 1710 ± 390 |  |  | 4.67e-05 ± 1e-05 | 8.59e-05 ± 1.7e-05 | 0.000145 ± 2.5e-05
AUAAAAGCGCCAGAACUAAAGAAAUGUAGUUGACGAGGAGGAGGUUUAUCGAAUUUUCGGCGGAUGCCUCCAAA [C19A] | 0.0165 ± 0.0045 | 610 ± 220 | 0.00101 ± 8.1e-05 | 0.00456 ± 0.00078 | 0.00758 ± 0.00099 | 0.011 ± 0.0021 | 0.0275 ± 0.0046
AUAAAAGCGCCAGAAUUACAGAAAUGUAGUUGACGAGGAGGAGGUUUAUCGAAUUUGCGGAGGAUGCCUCCAAA [C16U U57G C61A] | 1.37e-05 ± 2e-06 |  |  |  |  |  | 
AUAAAAGCGCCAGAACUACAGAAAUGUAAUUGACGAGGAGGAGGUUUAUCGAAUUUUCGGCGGAUGCAUCCAAA [G29A C68A] | 1.61e-05 ± 4.9e-06 |  | < 1e-05 |  |  |  | 
AUAAAAGCGCCAGAACUACAGAAAUGUAAUUGCCGAGGAGGAGGUUUAUCGAAUUUUCGGCGGAUGCCUCCAAA [G29A A33C] | 5.32e-05 ± 1.2e-05 |  | < 1e-05 |  |  | 5.47e-05 ± 1.8e-05 | 4.65e-05 ± 1.4e-05
